{"source": "the DeepSol protein solubility set"}
{"assay": "soluble on expression in E. coli; label from the status in PepcDB or PDB records"}
{"sequence": "MSLDDLWQTLPDPAELVTVGDLRGMIHTHSTWSDGGASIREMAEATLTLGHEFLGTADHSRAAYYANGLTIERLREQLKEIRELQRAGLPIVAGSEVDILDDGSLDFPDDVLGELDYVVVSVHSNFTLDAARQTERLIRAVSHPLVTVLGHATGRLLLRRPGYALDLDAVLGACEANGTVVEINANAARLDLDWREALRWRERLKFAINTDAHVPGGLRDARYGVMQARKAGLTPAHVVNSLGRAEFLDFVARQRAARGAPGPADREGHHHHHH", "soluble on expression in E. coli": "not soluble"}
{"sequence": "MSLDEKKLKALAVELAKGLKTEADLNSFSRMLAKLTVETVLNAELADHPGYEKNAPKTGSNTRNGYSSKTVLCDDGEIELNTPRDRENTFEPQLLKKHQTRITQMDSQILSLYAKGMTTREIVATFKEMYDANVSPSLISKVTDAVKEQVTERQNRQPDALYPIVYMDCIVVKVRQNGSVINKAVFLALGINTEGQKELLGMWLAENEGEKFWLSVLTELKTRGVQDILIACVDGLKGFPDAINSVFPQPHIQLCIIHMVRNSLKYVAWKGYKVATSGLRLRPKRRHEGHHHHHH", "soluble on expression in E. coli": "not soluble"}
{"sequence": "MSLDENLIEEIKLADDISKGYNAALNYLSYQLRTRKEVEDKLRSLDIHEDYISEIINKLIDLDLINDKNYAESYVRTMMNTSDKGPKVIKLNLSKKGIDDNIAEDALILYTDKLQVEKGVTLAEKLANRYSHDSYRNKQNKIKQSLLTKGFSYDIIDTIIQELDLIFDDDTEREILLEKANKLWSRYDNLDIKKRKFKIQQALFKQGFSFSNITSALDEIEDTNEGHHHHHH", "soluble on expression in E. coli": "soluble"}
{"sequence": "MSLDGKPTIIIKYGKIDEEAMKSQRYNFDDLMVQLRENSIDRVADVSFAILEPSGKLTIVKKENSGEHRQLEMPLIIDGFIQTENLSRISKDRKWLLESLQKHGYTNPSDISFCSFTDGEIYIDEKDGHRTKGIITITTDPNSSSVDKLAAALEHHHHHH", "soluble on expression in E. coli": "soluble"}
{"sequence": "MSLDIAYFTKTLEGLPLEKAAEITAGLGFDCADLLIRDGHAVSPDRPEGIANAVKFFAAAGVRTSMATIDSARPDDAASRLLSCCGEAGIGQIRLGFWRYDPSRRWRVQVDEARRDLDGFERLADRFGIKLTIQLHGGTLHSSGALAVQLLAGRDPIRLGAYPDPANQIIREGSEDWRLTLDILDPWFCCMGVKNSGWFPGAYGSHGQRAWHSDWYGLDEGMVPWNEIVPHLVATGFTGVLSMHSQYRVSREQALDKVRADLAHFRRLVAAAKEGHHHHHH", "soluble on expression in E. coli": "not soluble"}
{"sequence": "MSLDKKPVTTRKKVKVTGTETYINQSTGEIKEMQVIDIEERDFNFHKVWLEHIIHSMDLIGNQKTRLAFWLINNLNRDNVLIMTQRKIAEKTGISLETVRQTMKALMESGFLIKINSGAYCVNPDAVFKGGKTDRLNVLIQYRKSEQENTKTSEPTSEKDEPSLFNNEQLKAMEGHHHHHH", "soluble on expression in E. coli": "soluble"}
{"sequence": "MSLDSDPDTLVVHTQLGTTAPGSPTYLAAVDRFREENPGVKIKNLVNGDDLAQVYETSRLARKEADVVMVNLYDKTLAWTDVGATVDVKPYLDDWGLRGRVLPAALADWTDDEGRVRAFPYFATNWPVAYNRALLDRAGVDAIPTTGDQLIAAARKLRAKGIAPVTVGGNDWTGQKLLAQIIQTFLSQDEARHVYSTGDFGVRGARLGIEYFAHLRDAGVFADKAQGLTSDSMTTQFNTEEAAVQSAMSSALAKVPEKVAGHTEVGGWPLADGAAHDGPTVIRAYTLIGFWISPNGVRKIEQVEKFLRFMYRPDVVARFVTESGRDMALRTDAVSTGFPLVGAAQRLGSEVSQVLLPDVYVPPAAAQPLITATSTSFTRGTSPARVRAALESAYRSVEGHHHHHH", "soluble on expression in E. coli": "soluble"}
{"sequence": "MSLDSLNLNKHISGQFNAELESIRTQVMTMGGMVEQQLSDAITAMHNQDSELAKRVVEGDHQVNMMEVAIDEACVRIIAKRQPTASDLRLVMAIIKTIAELERIGDVADKICRTALEKFSQQHQPLLVSLESLGRHTVQMLHDVLDAFARMDLDEAVRIYREDKKVDQEYEGIVRQLMTYMMEDSRTIPSVLTALFCARSIERIGDRCQNICEYIFYFVKGQDFRHVGGDELDKLLAGKDPKEGHHHHHH", "soluble on expression in E. coli": "soluble"}
{"sequence": "MSLDSQVLEHVLPSHFAKYDKGGDEFYDLISAFHKSVRGSAPDAALYWYCRILAGGGDPLYVARRLLAIATEDIGNADPRAMQVALNAWDIFQRVGPSEGERAIAQATLYLASAPKSNAVYTAFNQAKHDAAHLPSYPVPEHLRNAPTQIMKELGFGAQYRYAHDEVGAFAAGENYFPEILKTKHYYQPTDRGLEKQIKDKLDYLASQNNQSENKRYDEGHHHHHH", "soluble on expression in E. coli": "soluble"}
{"sequence": "MSLEAILPVPEEKQVDWQKMETYAFVHFGLNTFNDREWGYGDSEPKTFNPTKLDCEQWVKTFVESGMKGVILTAKHHDGFCLWPTQLTEYCIRNTPYKDGKGDIVGELAAACKKYGIKFAVYLSPWDRHQANYGTPEYVDYFHKQLTELMTNYGEVFEVWFDGANGGDGWYGGAKDSRTIDRKTYYNYPRIYEILDKLQPQAIVFSDGGPGCRWVGNENGFAGATNWSFLRAGEVYPGYPKYRELQYGHADGNQWVPAECDVSIRPGWFYHPEEDDRVKTVEQLTDLYYRSVGHNATLLLNFPVDRDGLIHPIDSANAVNFHKNVQKQLAHNLLAGIRPKASDERGGQFSAKAATDESWDTYWATNDGVTAADIEFDFPKTEKVNRMMIQEYIPLGQRVKSFIVEYDKDGKWLPVKLNEETTTVGYKRLLRFETVSTDKLRIRFTDARACLCINNIEAYYAGETADTFTVEAKELKSYPFTLVGVPEEETKKCMDKDKNTTAFVEGDALVIDLGEERTITSFHYLPDQSEYNKGLISSYELSVGTEANAVNRIVAQGEFSNIKNNPILQSVYFTPVKARYLSLKPTKMVTEGETMGFAEIGIQEGHHHHHH", "soluble on expression in E. coli": "soluble"}
{"sequence": "MSLEAKECKVQDILTENKKFIIPSYQRPYSWTVDNAEQLIDDIYKSSQSEENEYFIGSMICINKGQNQYEVVDGQQRLTTLSIIVSELKKIIPIQGIKDDLQKRVLPIDVYSDETDEPRLIVRKKEYDLYKYYILQDSKDYKPEKPSDTELVFISNAETIRDYLLRLSVDELKLLAKYILQNVYIVFVQTDDFASSFRLFNVLNSRGLPLSNADLLKNALFESASTHNKKSEQIESAWSQIEDMVGVRRLDKFLTLHKLSEKKDRDRVLQKGFEAFIENLQQQFDGDAIAMSLMLVNSAKNYTKILENDFEHSSIRRKIASLSNLGVDEWIPPVMAFMNRMARTEDFNLDDFSQFITAFEKVYMHGWLKKQIKSQREMVCYSALVAINNDMSFDSVINQINQHADNSGFIAALDEDLYEPRPNQVNLIKAILLRLDMEQQDESVIKTYTGRITIEHILPQALVNEYWINRFQPQEHVYWLHKIGNLTLISGSKNSEAQHYDFIKKKSIYEKLNSKSSFDLTKDVCNSSEWGLAELKMRHEKMKTQLKKLWLVEGHHHHHH", "soluble on expression in E. coli": "soluble"}
{"sequence": "MSLEARVLTGAALEARLDEVARLRIAVFRDWPYLYEGSMDYERSYLSTYRTSPGAILVGAFDGDRLVGASTGTPMEDHAEDFAAAFARTGLPLDEIFYCAESVLLPDYRGHGMGHRFFDLREAHARALGRRHSAFCSVIRPEDHPLRPAAARSNEPFWRKRGYAPLPGVVAHYGWTDVGEERETQKPLQFWIRDL", "soluble on expression in E. coli": "not soluble"}
{"sequence": "MSLEDFAESEGGVKKKIPISLVTIRSAKLFDIPFIMRIEQASFREKYPRGLFLTFLESNPDTFLVAEYNGKVIGYVMGYLRPDMEGHIMSIAVDPNYRGNGIGKALMIAVINKLFKKGARWIGLEVRVSNVIAINLYKKLGFKITKRIYSYYSDGEDAFYMILTPEDWKRVNLEEGHHHHHH", "soluble on expression in E. coli": "soluble"}
{"sequence": "MSLEGFIEDASVSLGLRNLYFNRDFRQPGAAQSKQEEWAQGFLLQAKSGYTQGTLGLGVELIGQLGLKLDSSPDRAGSGLLPRHADGRAADDYARLGVAPKLKLSNTELKLGELLPELPILLRNDGRLLPQTFQGGMLTSREIAGLTLHGGQMRSLSQRNSSDHQDLSVDGRGGAFSDRFDYLGAEYRFNAERSQVGLWQARLQDIYRQDYYSLSHKQSFGGWRLGASVGLFDTRDEGAAKLGELENRALTGFFSATRGGHSLGAGYQRMYGDDGMLYIAGTSTPLVNDIQVRNFTSAGERSWQLRYDYDFVALGIPGLTAMARYASGAHARTKAMDDGRAWERDVDVAYVIQSGPLKNLGLRWRNAMLRSNHAADVDENRLILSYSLPLLEGHHHHHH", "soluble on expression in E. coli": "soluble"}
{"sequence": "MSLEGGKGPRLRDFLSGSLATWALGLAGLVGEAEDSEGEPLWLEKRFLRLSDGALLLRVLGIIAPSSRGGPRMLRGLDGPAAWRVWNLNHLWGRLRDFYQEELQLLILSPPPDLQTLGFDPLSEEAVEQLEGVLRLLLGASVQCEHRELFIRHIQGLSLEVQSELAAAIQEVTQPGAGVVLALSGPDPGELAPAELEMLSRSLMGTLSKLARERDLGAQRLAELLLEREPLCLRPEAPSREGHHHHHH", "soluble on expression in E. coli": "soluble"}
{"sequence": "MSLEKHNEHKTLNHKSSKEKDQITNRLKRIEGQVRGIQNMVENDRYCVDILVQISAVQAAMKNVALHLLEDHAHHCVADAIKSGDGEQAISELLDVFKKFTKSEGHHHHHH", "soluble on expression in E. coli": "soluble"}
{"sequence": "MSLEMNRYLSFTLFTGLSLLTTIPIEAYTLNPNKTATSILQTNVIEVRSITSVQPIVIYCPVGTVPQLPYQVWVTYSDGQGEYRQTKWSNSALSTEQSEADDKVYPIGSQYTINGFIIGDDTTENGYPITAKIEVVDTKNTISPKLIAHTIPLNNVKINGNNRLTSNRDLAIKEIISWDVSQQLYNYRDTYGLSTEGYTRSDGWDSPETKLKGHGSGHYMSALALAYAAATNPSHKEILRRNITRMVNELRECQERTFVWSEELGRYLEARDFAPEEELKKMKGTWEAFDEHKTKWATYGYGYLNAIPPHHPALIEMYRAYNNSDWVWAPYYSIHKQLAGLIDIATYMDDKSIADKALLIAKDMGLWVWNRMHYRTYVKKDGTQEERRTHPGNRYEMWNMYIAGEVGGMGESLARLSEMVSAPEEKARLIEASNCFDSPAFYEPLSKNIDDIRNRHANQHIPMIIGALRSYLSNNDTFYYHVSHNFWNLIQGRYRYSTGGVGNGEMFRQPYTQIVSMAMNGVSEGESHSNPHINETCCAYNLLKLTKDLNCLNPDDARYMDYYERTLYNQIIGSLHPEHHQTTYQYAVGLNASKPWGNETPQSTCCGGTGSENHVKYQEATYFVSDNTLWVALYMPTTLHWEEKNITLQQECLWPAKSSTIKVTAGEARFAMKLRVPYWATDGFDVKLNGISIATHYQPCSYAVIPTRQWKENDIVEITMPFTKHIDYGPDKLPAEIASKDGHQLETAWVGTLMHGPFAMTATDITNWTEATLNIDSRLASITVVEPNGPQTGTTGNLYTLMQGGRTFQPDYYRHDHTTHYFRINHIKDPTEGHHHHHH", "soluble on expression in E. coli": "soluble"}
{"sequence": "MSLEPSVTGPSEAPVLDTAWMKAVPSVRPVPAGSAAEALEALAVKGRAADDSYERTAFGQAWLDVDRNGCDTRNDILRRDLAGVQFTEGSRCRVAGGEFHEPYTGAVVTFTRGAESSKAVQIDHVVALGDAWQKGAQQLTPQQRQSLANDPLNLVAADGPANQEKSASDAASWLPKNKTFRCHYVARQISVKAAYGLWVTQPEKDAMKRVLDSCPQQQTVMPREGHHHHHH", "soluble on expression in E. coli": "soluble"}
{"sequence": "MSLEQNFIRLYQDSFREHWALPALTNYDTKESYTYGEMAADIARRHLLFERIGLKPGDKVALLGKDSAEWCMAFMSVITYGAIIVPVLPDFNAADAASIVTHSDAKYLFVSDKIWETMDPSQLLLLCGAVSIRDYTVFLDRTEGGLLSQEVEGLSRSFSEHYPSGFTAEDIRYAEVSNDDLILLNYTSGTTGFSKGVMLRANNLAGNVTYVKDRDIMFRGETILCFLPLAHTYSCAFNFLTPLTIGVHVYILGKIPSPLTLIKAFADVRPSFVIMVPLIIEKLYHKAIAPKIKTPLIKFLLRLPVLKKVIHKSIRSKLIESFGGNFRQIIIGGAALNDEVAHFLYRIGFPLTVGYGMTECGPLISYEDHSLWLPGSCGKSLSIMEVRIDHSGQERHSDSGDVGEIQVRGENVCLGYYKNAELTAELFTPDGWMRTGDLGTIDSLGNIFIKGRSKTMLLGSNGQNIYPEEIESKINNLSYVLESIVTERDGRLIALIVPDRQAIEHKGISPDQAWAYIERSRAELNGQVGAYEKITAFVRHDEEFEKTPKHSIKRFLYTEGHHHHHH", "soluble on expression in E. coli": "soluble"}
